The record followed here is paper doi:10.1101/2025.01.05.631328 (bioRxiv, 2025).

This data set concerns the molecule itself. The data set is described as follows: cross-linking.

Several values for one entry are separate records, joined by “and”; a condition that tells them apart may be missing. Equal entries are not always repeated.

B1: MISO-Flag (human C3orf33, long isoform), in U2OS cells (natural protein, UniProt Q6P1S2 1-294, looked up)
chain: MAGQPAATGSPSADKDGMEPNVVARISQWADDHLRLVRNISTGMAIAGIMLLLRSIRLTSKFTSSSDIPVEFIRRNVKLRGRLRRITENGLEIEHIPITLPIIASLRKEPRGALLVKLAGVELAETGKAWLQKELKPSQLLWFQLLGKENSALFCYLLVSKGGYFSVNLNEEILRRGLGKTVLVKGLKYDSKIYWTVHRNLLKAELTALKKGEGIWKEDSEKESYLEKFKDSWREIWKKDSFLKTTGSDFSLKKESYYEKLKRTYEIWKDNMNNCSLILKFRELISRINFRRKG
On to B1, for which the “stoichiometry N” value was 2 and 3.

In general, stoichiometry N refers to the number of molecules, sites or subunits per partner or assembly.
